Columns and labels:
[1] = molecular target: F-actin (rabbit skeletal muscle actin, polymerized) (rabbit) (UniProt P68135)
[2] = molecular target: F-actin (Oryctolagus cuniculus) (UniProt P68135); conditions: cited from earlier work
[3] = molecular target: α-actinin-2 (Homo sapiens) (UniProt P35609); conditions: cited from earlier work
Sequence of α-actinin-2 (Homo sapiens) (P35609 whole entry): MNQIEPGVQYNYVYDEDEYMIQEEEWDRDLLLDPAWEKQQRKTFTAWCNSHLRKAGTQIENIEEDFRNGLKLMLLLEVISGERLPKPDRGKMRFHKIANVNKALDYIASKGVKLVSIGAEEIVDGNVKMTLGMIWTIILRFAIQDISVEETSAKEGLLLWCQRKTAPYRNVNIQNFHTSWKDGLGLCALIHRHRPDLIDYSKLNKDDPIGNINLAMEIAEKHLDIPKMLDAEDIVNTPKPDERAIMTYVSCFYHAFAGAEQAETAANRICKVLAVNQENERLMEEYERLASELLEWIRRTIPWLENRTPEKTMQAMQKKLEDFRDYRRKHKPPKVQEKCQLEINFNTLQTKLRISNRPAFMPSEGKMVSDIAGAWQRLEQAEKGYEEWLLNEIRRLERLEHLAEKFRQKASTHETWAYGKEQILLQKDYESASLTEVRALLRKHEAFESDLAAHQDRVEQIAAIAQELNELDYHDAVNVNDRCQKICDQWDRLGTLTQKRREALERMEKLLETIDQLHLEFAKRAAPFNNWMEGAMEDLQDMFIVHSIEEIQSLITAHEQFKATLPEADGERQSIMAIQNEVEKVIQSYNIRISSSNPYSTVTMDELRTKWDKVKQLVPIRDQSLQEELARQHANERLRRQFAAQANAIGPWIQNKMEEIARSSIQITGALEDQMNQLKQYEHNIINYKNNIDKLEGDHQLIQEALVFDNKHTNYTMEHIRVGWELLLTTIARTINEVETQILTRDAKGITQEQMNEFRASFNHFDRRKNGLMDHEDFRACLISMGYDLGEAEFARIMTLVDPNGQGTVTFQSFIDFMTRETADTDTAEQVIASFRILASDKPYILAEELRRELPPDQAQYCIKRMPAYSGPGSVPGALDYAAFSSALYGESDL

Sequence of Titin Zr-7 (Q8WZ42 692-740): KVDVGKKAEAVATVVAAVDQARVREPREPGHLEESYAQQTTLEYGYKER

Row | Substance | FRAP in Z-discs of C2C12 myotubes, median half-time of fluorescence recovery [1] [s] | also measured
1 | N-terminal EGFP fusion of myotilin K354/358/359A (from UniProt Q9UBF9 1-498) (natural protein) | 32.3 | 
2 | N-terminal EGFP fusion of myotilin K354/359A (from UniProt Q9UBF9 1-498) (natural protein) | 35.5 | 
3 | N-terminal EGFP fusion of myotilin K354A (from UniProt Q9UBF9 1-498) (natural protein) | 48.2 | 
4 | N-terminal EGFP fusion of myotilin K359A (from UniProt Q9UBF9 1-498) (natural protein) | 64.1 | 
5 | N-terminal EGFP fusion of myotilin, wild type (from UniProt Q9UBF9 1-498) (natural protein) | 72.4 | 
6 | Palladin (from UniProt Q8WX93) |  | Kd [2]: 2100 nM
7 | Titin Zr-7 (from UniProt Q8WZ42) |  | Kd [3]: 480 nM
